Results from the RNAGym collection of RNA variant scans (doi:10.7554/elife.80360).

B1: Twister Ribozyme (parent)
chain: AACACUGCCAAUGCCGGUCCCAAGCCCGGAUAAAAGUGGAGGGGGCGG

Variants of: B1
Assay: self-cleavage, relative activity (ratio to wild type); higher = more cleavage; co-transcriptional

Variant | self-cleavage
AAAACUGCCAAUGCCGGUCCCAAGCCCGGAUAAACGUGGAGGGGGCGG [C3A A35C] | 0.315
AACACUGCCAAUUCCGGUCCCAAGCCCGGAUAAAAGUGGAGGGGGCAG [G13U G47A] | 0.228
AACACUGCCAAUGCCGGUCCCAAGCCCGGAGGAAAGUGGAGGGGGCGG [U31G A32G] | 0.836
AACAAUGCCAAUGCCGGUCCCAUGCCCGGAUAAAAGUGGAGGGGGCGG [C5A A23U] | 0.074
AACACUGCCAAUGCCGGUCCCCAGCUCGGAUAAAAGUGGAGGGGGCGG [A22C C26U] | 0.631
AACACUGCCAAUGCCGGUCCCAAGCCGGGAUAAAAUUGGAGGGGGCGG [C27G G36U] | 0.0875
AUCACUGCCAAUGCCGGUCCCAAGCCCGGAUAAAAGUGGAGGGGGCAG [A2U G47A] | 0.292
AACACUGCCAAUGCCGGUCCUAAGCUCGGAUAAAAGUGGAGGGGGCGG [C21U C26U] | 0.0769
AACACUGCCAAUGCCGGUCCCACGCCCGGAAAAAAGUGGAGGGGGCGG [A23C U31A] | 0.363
AACACUGCCAAUGCCGGUCCCAAGCCCGGAGAAAAGAGGAGGGGGCGG [U31G U37A] | 0.818
AACACUGCCAAUGCCGGUCCCAAGCCCGGAUAAAAGUGAAAGGGGCGG [G39A G41A] | 0.153
AACACUGCCAAUGCCGGUCCCAAGCCCUGAUAAAAGCGGAGGGGGCGG [G28U U37C] | 0.431
AACACUGCCAAUGCCGGUCCCAAGCCCGGAUAAAAGGGGGGGGGGCGG [U37G A40G] | 0.155
AACACUGCCAAUGCCGGUCCCAAGCCCGGCAAAAAGUGGAGGGGGCGG [A30C U31A] | 0.687
AACACUGCCAAUGCCGGUCCCAAGCCCAGAUAAAACUGGAGGGGGCGG [G28A G36C] | 0.131
AACACUGCCAAUGCCGGUCCCCAUCCCGGAUAAAAGUGGAGGGGGCGG [A22C G24U] | 0.0876
AACACUGCCAAUGCCGGUCCCAAGCCCCUAUAAAAGUGGAGGGGGCGG [G28C G29U] | 0.98
AACACUCCCAAUGCCGGUCCCAAGCCCGGAUAGAAGUGGAGGGGGCGG [G7C A33G] | 0.064
AACACUGCCAAUGCCGUUCCCAAGCCCGGAUAAAAGUGGACGGGGCGG [G17U G41C] | 0.0885
AACACUGCCAAUGCCGGUCCCAAGCCCGGUUAAAAGUGGAGGGGCCGG [A30U G45C] | 0.661
AACACUGCCAUUGCCGGUCCCAAGCCCGUAUAAAAGUGGAGGGGGCGG [A11U G29U] | 1.04
AACACUGCCAAUGGCGGUCCCAAGCCCGGAAAAAAGUGGAGGGGGCGG [C14G U31A] | 0.153
AACACAGCCAAUGCGGGUCCCAAGCCCGGAUAAAAGUGGAGGGGGCGG [U6A C15G] | 0.0866
AACACUGCCAAUGCAGGUCCCAAGCCCGGAUAAAAGUGGAGGCGGCGG [C15A G43C] | 0.17
AGCACUGCCAAUGCCGGUCCCAAGCCCGGAUAAAAGUGGAGGGGCCGG [A2G G45C] | 0.0901
AACACUGCCAAUACCGGUCCCAAGCCCGGAUAAAAGUGGAGGGUGCGG [G13A G44U] | 0.845
AACACUGCCAAUGCCGGUCCCAAGCCCGGAUAAAAGUGGAUGGUGCGG [G41U G44U] | 0.193

Variant | self-cleavage
AACACUGCCAAUGCCGGUCCCAAGCCCGGAUAAAAGUGGACGGGGCGA [G41C G48A] | 0.234
AACACUGCCAAUGCUGCUCCCAAGCCCGGAUAAAAGUGGAGGGGGCGG [C15U G17C] | 0.0992
AACACUGCCGAUGCCGGUCCCAAGCCCGGAUAAAAGUGGAGGGGGCGG [A10G] | 1.02
AACACUGCCAAUGCCGAUGCCAAGCCCGGAUAAAAGUGGAGGGGGCGG [G17A C19G] | 0.14
AACACUGCCAAUGCCGGUCCCAACCCCGGAUAAAAGCGGAGGGGGCGG [G24C U37C] | 0.0778
AACACUGCCAAUGCCGAUCCCAAGCCCGGCUAAAAGUGGAGGGGGCGG [G17A A30C] | 0.275
AACACUGCCAAUGCCGGUCCCAAGCCCGUAUAAAGGUGGAGGGGGCGG [G29U A35G] | 0.786
AACACUGCCAAUUCCGGUCCCAAGCCCGGAUAAAAGUGGAGGGGGGGG [G13U C46G] | 0.328
AACCCUGCCAAUGCCGGUCCCAAGCCCGGAUAAAAGUGGAGGGGCCGG [A4C G45C] | 0.16
AAAACUGCCAAUGCCGGUCCCAAGACCGGAUAAAAGUGGAGGGGGCGG [C3A C25A] | 0.0581
AACACUGCCAAUGCCGGUCCCAAGCCCGGACAAAAGUGGAAGGGGCGG [U31C G41A] | 0.539
AAGACUGCCAAUGCCGGUCCCCAGCCCGGAUAAAAGUGGAGGGGGCGG [C3G A22C] | 0.481
AACGCUGCCAAUGCCGGUCCCAAGCCCGGAGAAAAGUGGAGGGGGCGG [A4G U31G] | 0.759
AACACUGCCAAUGCCGGUCCCAAGCCCGGAUAAAAGAGGAGGGGGCGC [U37A G48C] | 0.865
AACACUGCCAAUGCCAGUCUCAAGCCCGGAUAAAAGUGGAGGGGGCGG [G16A C20U] | 0.837
AACACUGCUUAUGCCGGUCCCAAGCCCGGAUAAAAGUGGAGGGGGCGG [C9U A10U] | 0.399
AACACUGCCAAUGCCGGUCCCAAGCCCGCCUAAAAGUGGAGGGGGCGG [G29C A30C] | 0.971
AACACUGCCAAUGCCGCUCCCAAGCCCGGAUAAAAGUGUAGGGGGCGG [G17C G39U] | 0.0818
AACACUACCAAUACCGGUCCCAAGCCCGGAUAAAAGUGGAGGGGGCGG [G7A G13A] | 0.0834
AACACUGCUAAUGCCGGUCGCAAGCCCGGAUAAAAGUGGAGGGGGCGG [C9U C20G] | 0.0672
AACACUGCCAAUGCCGGUUCCAAGCCGGGAUAAAAGUGGAGGGGGCGG [C19U C27G] | 0.0975
AACACUGCCCAUGCCGGUACCAAGCCCGGAUAAAAGUGGAGGGGGCGG [A10C C19A] | 0.214
ACCACUGCCAAUUCCGGUCCCAAGCCCGGAUAAAAGUGGAGGGGGCGG [A2C G13U] | 0.0549
AACACUGCCAAUGCCGGUCCCAAUCCCGGAUAAAGGUGGAGGGGGCGG [G24U A35G] | 0.0925
AACACUGCAAAUUCCGGUCCCAAGCCCGGAUAAAAGUGGAGGGGGCGG [C9A G13U] | 0.927
AACACUGGCAUUGCCGGUCCCAAGCCCGGAUAAAAGUGGAGGGGGCGG [C8G A11U] | 0.691
AACACUGCCAAUGCCGGUCCCCAGCCCGGAUUAAAGUGGAGGGGGCGG [A22C A32U] | 0.858
